# Experimental data: the nanobody polyreactivity screen of Harvey et al. (2022)
# Experiment: yeast display, Sf9 membrane polyspecificity reagent, FACS + sequencing; frameworks hold sequencing errors
# How it was run: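 Nanobodies from a synthetic yeast display library (Saccharomyces cerevisiae BJ5465), induced 36–48 hours with galactose, were stained 1 hour at 4 °C with 10% biotinylated, detergent-solubilized Sf9 membrane reagent, enriched on streptavidin microbeads, then FACS-sorted. Anti-HA (expression) and streptavidin (reagent binding) fluorescence set low and high (top ~1%) gates. Polyreactivity labels come from the gate of origin. Genes were colony-PCR amplified, MiSeq 2 × 250 sequenced and filtered by CDR length.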
row,Sequence,polyreactivity (PSR sort gate)
1,QVQLVESGGGLVQAGGSLRVSCAASGGIFGWYAMGWSRQAPGKERELVATITWRGGRTYYADSVKGRCTISRDNAKNTVYLQLTSLKPESTAVYYCTAEWLWYDAGYRYTIRDSWGQGTQVTESS,low polyreactivity
2,QVQLVESGGGLVQAGGSLRVSCAASGGIFWYYTMGWYRQAPGKERELVATISSGGRTYYADSVKGRFTISRDNAKNTVYLQMNSLKPEDTAVYYCAAVGWYHDYYWGQGTQVTVSS,high polyreactivity
3,QVQLVESGGGLVQAGGSLRVSCAASGIFPAYDMGWYRQAPGKDRELVASISADSGSTHYADSVKGRFTISRDNAKNTVYFQMNSLKPEDTAVYYCAADLGYRTGDYYWGQGTQVTVSS,low polyreactivity
4,QVQLVESGGGLVQAGGSLRVSCAASGIIFYGYAMGWYRQAPGKEMELVAVITSGGSTNYADSVKGRFTISRDNAKNTVYLQMNSLKPEDTAVYYCAAKYHYFGFRYDYWGQGTQVTVSS,high polyreactivity
5,QVQLVESGGGLVQAGGSLRVSCAASGRIIPSYAMGWYRQAPGKERELVAVIRSSVDGTYYADSVKGRFTISRDNAKNTVYLQMNSLKPEDTAVYYCAADSYPFFNLNQYPVREGEYGHWGQGTQVTVSS,low polyreactivity
6,QVQLVESGGGLVQAGGSLRVSCAASGRILSRNAMGWYRQAPGKERELVAAISISGGSTYYADSVKGRFTISRDNAKNTVYLQMNSLKPEDTAVYYCNTAYYGSRKYDYWGQGTQVTVSS,high polyreactivity
7,QVQLVESGGGLVQAGGSLRVSCAASGRTFGPYAMGWYRQAPGKERELVAAINSGDRTYYADSVKGRFTISRDNAKNTVYLQMNSLKQEDTAVYYCNARSRRPDDYWGQGTQVTVSS,low polyreactivity
8,QVQLVESGGGLVQAGGSLRVSCAASGRTFRYYDMGWYRQAPGKEREFVAAITWRGGSTYYADSVKGRFTISRDNAKNTVYLQMNSLKPEDTAVYYCAADPFDDQLQYDYWGQGTQVTVSS,low polyreactivity
9,QVQLVESGGGLVQAGGSLRVSCAASGSFFVPYAMGWYRHAPGKERELVAAISRGGDTNYADSEKGRFTISRDNAKNTVYLQRNSLKPEDTAVYYCNRARHHYSRWHGGYYYWGQGTQETVSS,low polyreactivity
10,QVQLVESGGGLVQAGGSLRVSCAASGSIFSSYAMGWYRQAPGKDRELVAVINSGGSTNYADSVKGRFTISRDNAKNTVYFQMNTLKPEDTAVYYCNAYGGTFHNSAAEFDYWGQGTQVSVSS,low polyreactivity
11,QVQLVESGGGLVQAGGSLRVSCAASGSIFYSYGMGWYRQAPVKERELVAAITSSGGGTYYADSVKGRFTISRDNAKNSVYLQMNSLKPEDTAVYYCAAHDRNYNYYPTFYYWGQGTQVSVSS,low polyreactivity
12,QVQLVESGGGLVQAGGSLRVSCAASGSTFFRYVMGWYRQAPGNERELVARITSSGSTYYADSVKGRFTISRDNAKNTVYLQMNSLKPEDTAVYYCAAVYASYPYRTKFYYWGQGTQVTVSS,high polyreactivity
13,QVQLVESGGGLVQAGGSLRVSCAASGSTFGGNAMGWYRQAPGKERELSTYYADSVKGRFTISRDNAKNTVYLQMNSLKPEDTAVYYCNTENFYGSDIFDSWGQGTQVTVSS,low polyreactivity
14,QVQLVESGGGLVQAGGSLRVSCAASGSTFNINAMGWYREAPGKERELVAAISSGGSTNYADSVKGRFTISRDNAKNTVYLQMNSLKPEDTAVYYCNADFILSGWWGIVGYDYWGQGTQVTVSS,low polyreactivity
15,QVQLVESGGGLVQAGGSLRVSCAASGSTFQYYAMGWYRQAPGKERELVARISDSSANTYYADSVKGRFTISRDNAKNTVYLQMNSLKPEYTAVYYCATRRSHVLSEMDYWGQGTQVTVSS,low polyreactivity
16,QVQLVESGGGLVQAGGSLRVSCAASGYTFKHYTMGWYREAPGKERELVATISIRGGNTSYADSVKGRFTISRDTAKNTVYLQMNSLKPEDTAVYYCAARSVNAPPRYRQKAGYDYWGQGTQETVSS,high polyreactivity
17,QVQLVESGGGLVQAGGSLRVSCADSGNILYLYAMGWYREAPGKERELVAAISGNGGRTYYADSVKGRFTISRDNAKNTVYLQMNSLKPEDTAVYDCAADYAGRRFWYYHGLDSWGQGTQVTVSA,high polyreactivity
18,QVQLVESGGGLVQAGGSLSLICAASGFTFGSNDMGWYRQAPGKERELVAAIDGSGDTYYADSVKGRFTISRDNAKNTVYLQMNSLKPEDTAVYYCARDDNPIYSGVTYDYWGQGTQVTVSS,low polyreactivity
19,QVQLVESGGGLVQAGGSLSLICAASGFTFVDYAMGWYRQAPGKERELVAAITVSGDSTYYADSVKGRFTISRDIAKNTVYFQMNSLKPEDTAVYYCAADPGYYDGGYWGQGTQVTVSS,low polyreactivity
20,QVQLVESGGGLVQAGGSLSLICAASGRIYYRYHMGWYRQAPGKERELVATISRSGGSTNYADSVKGRFTISRDNAKNTVYLQMNSLNPEYTAVYYCNALYLSTRSGDYWGQGTQVTVSS,high polyreactivity
21,QVQLVESGGGLVQAGGSLSLICAASGSTSYRYAMGWYRQAPGKERELVAGITRSGGSTYYADSVKGRFTISRDNAKNTVYLQMNSLKPEDTAVYYCAAYYSRQYVGYGYWGQGTQVTVSS,high polyreactivity
22,QVQLVESGGGLVQAGGSLSLICAASRLTFYLYAMGWYRQAPGKERELLAAISYSGGSTYYADSVKGRFTISRDNAKNTVYLQMNSLKPEDTAVYYCNALRAGTDSRRTYGSTYGYWGQGTQVTVSS,high polyreactivity
